Source: patent US20050147612A1 (published 2005)

B1: MS-Pro-24-dHLX-MH (other, not shown: a dimerising Fc or GST; small tags and cut ends)
VH: QVQLVQSGAEVKKPGSSVKVSCKASGGTFSSYAISWVRQAPGQGLEWMGGIIPIFGTANYAQKFQGRVTITADESTSTAYMELSSLRSEDTAVYYCARVNHWTYTFDYWGQGTLVTVSS
VL: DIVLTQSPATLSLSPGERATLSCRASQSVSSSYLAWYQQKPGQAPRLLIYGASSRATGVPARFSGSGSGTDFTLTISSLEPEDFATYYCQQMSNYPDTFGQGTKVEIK
modifications: Dimeric Fab mini-antibody: Fab fused to the dHLX helix and the MH tag. These parts are not in the letters.
notes: Fab mini-antibody format Fab-dHLX-MH (dimer of the Fab); copies: 2 + 2
B2: MS-Pro-26-dHLX-MH (other, not shown: a dimerising Fc or GST; small tags and cut ends)
VH: QVQLVQSGAEVKKPGASVKVSCKASGYTFTSYYMHWVRQAPGQGLEWMGWINPNSGGTNYAQKFQGRVTMTRDTSISTAYMELSSLRSEDTAVYYCARGYWYAYFTYINYGYFDNWGQGTLVTVSS
VL: DIALTQPASVSGSPGQSITISCTGTSSDVGGYNYVSWYQQHPGKAPKLMIYDVSNRPSGVSNRFSGSKSGNTASLTISGLQAEDEADYYCQSYDNNSDVVFGGGTKLTVL
modifications: Dimeric Fab mini-antibody: Fab fused to the dHLX helix and the MH tag. These parts are not in the letters.
notes: Fab mini-antibody format Fab-dHLX-MH (dimer of the Fab); also called MSPRO26 Fab-dHLX; MSPRO26 dimeric dHLX format; copies: 2 + 2

What was measured:
FR3exFc = target: T1, FR3exFc (human); test: BIAcore, mini-antibody format
T1 construct: Said to be entirely in dimeric form; also called FR3/Fc; FGFR3/Fc

FGFR3 wild type on cells = FGFR3 wild type on cells (human, UniProt P22607 23-806); test: cell-based or functional assay
Sequence of FGFR3 wild type on cells (P22607 23-806 limits assumed): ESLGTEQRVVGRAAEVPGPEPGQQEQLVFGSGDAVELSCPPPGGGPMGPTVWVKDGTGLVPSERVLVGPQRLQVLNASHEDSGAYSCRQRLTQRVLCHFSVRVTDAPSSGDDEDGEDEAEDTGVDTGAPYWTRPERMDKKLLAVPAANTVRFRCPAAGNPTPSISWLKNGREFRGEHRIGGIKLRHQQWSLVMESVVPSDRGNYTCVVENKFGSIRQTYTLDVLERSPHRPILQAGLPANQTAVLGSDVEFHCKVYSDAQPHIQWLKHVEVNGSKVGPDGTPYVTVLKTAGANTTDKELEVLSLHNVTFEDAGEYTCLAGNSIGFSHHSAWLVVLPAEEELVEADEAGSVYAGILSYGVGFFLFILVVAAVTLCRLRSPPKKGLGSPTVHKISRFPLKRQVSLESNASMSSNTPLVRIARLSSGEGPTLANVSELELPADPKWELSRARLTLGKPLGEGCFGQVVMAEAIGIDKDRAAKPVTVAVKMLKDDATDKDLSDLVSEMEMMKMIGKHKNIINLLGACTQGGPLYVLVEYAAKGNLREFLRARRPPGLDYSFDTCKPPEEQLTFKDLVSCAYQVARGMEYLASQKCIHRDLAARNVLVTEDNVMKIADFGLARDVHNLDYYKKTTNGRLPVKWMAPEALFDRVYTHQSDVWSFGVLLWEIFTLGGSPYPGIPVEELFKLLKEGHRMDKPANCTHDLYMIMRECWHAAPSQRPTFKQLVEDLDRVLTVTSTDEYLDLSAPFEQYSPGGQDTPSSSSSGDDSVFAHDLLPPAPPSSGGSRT

T1 sequence (chain, as listed by the source limits assumed): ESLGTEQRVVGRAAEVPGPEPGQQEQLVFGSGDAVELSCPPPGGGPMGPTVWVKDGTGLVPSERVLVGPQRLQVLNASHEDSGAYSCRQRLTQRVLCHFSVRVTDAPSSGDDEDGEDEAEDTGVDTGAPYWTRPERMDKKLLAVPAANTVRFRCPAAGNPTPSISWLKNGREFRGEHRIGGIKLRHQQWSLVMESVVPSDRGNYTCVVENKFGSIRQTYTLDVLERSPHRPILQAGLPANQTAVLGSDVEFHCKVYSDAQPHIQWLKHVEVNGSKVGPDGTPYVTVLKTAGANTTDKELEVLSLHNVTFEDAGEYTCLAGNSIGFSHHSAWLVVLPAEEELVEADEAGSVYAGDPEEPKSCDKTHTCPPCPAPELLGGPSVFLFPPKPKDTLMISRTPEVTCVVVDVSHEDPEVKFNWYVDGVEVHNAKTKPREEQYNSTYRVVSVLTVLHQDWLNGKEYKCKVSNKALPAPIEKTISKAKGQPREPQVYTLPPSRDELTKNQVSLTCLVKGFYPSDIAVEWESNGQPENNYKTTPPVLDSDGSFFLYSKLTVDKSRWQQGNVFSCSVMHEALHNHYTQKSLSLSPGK

Kd (FR3exFc) [nM]	IC50, FDCP-FGFR3 proliferation assay with FGF9 (FGFR3 wild type on cells) [nM]	Binder
2		B1
2	8	B2
